Experimental data: publication PMC2444025
Read-outs that look alike come from different tables or passages of the source.

How the values were obtained:
[1] = system: Immunoglobulin E (IgE), human myeloma (human); details: in solution; full-length clone; Blocking buffer: 10 mg/mL casein, 0.1% Tween-20, 8.1 mM Na2HPO4 (printed N2HPO4), 1.1 mM KH2PO4, 2.7 mM KCl, 137 mM NaCl (138 mM also listed), 1 mM MgCl2, pH 7.; cited from earlier work
[2] = system: Immunoglobulin E (IgE), human myeloma (human); assay: DNA microarray fluorescence; details: Blocking buffer: 10 mg/mL casein, 0.1% Tween-20, 8.1 mM Na2HPO4 (printed N2HPO4), 1.1 mM KH2PO4, 2.7 mM KCl, 137 mM NaCl (138 mM also listed), 1 mM MgCl2, pH 7.

CTACCTACGATCTGACTAGCCAATGAGTGTACCACGTTTATCCGTCCCTCCTAGTGGCGTGCTTACTCTCATGTAGTTCC [D 17.0]
Kd [1]: 9 nM
Kd [2]: > 100 nM
